This passage reports response results from paper PMC11531844.

The target of the test is Rluc-tagged smAKAP, a peptide derived from an RI-specific AKAP. The test is described as follows: Renilla luciferase (Rluc) protein-fragment complementation assay (PCA). Particulars: bar labelled L50R:smAKAP; parent: est. 13; read off a plot.

For “Rluc-tagged RIβ WT (Renilla luciferase protein-fragment complementation hybrid protein) (from UniProt P31321) L50R”, the response is 1.5 RLU 10^4.
